Reference: patent US20210155689A1 (SHANGHAI PHARMAEXPLORER, published 2021)

T1: monkey LAG-3 (full length, on the cell surface) (monkey, UniProt P18627 24-525 (human entry))
T1 construct: also called HEK293-cLAG-3; monkey LAG-3 protein on the cell surface
T1 chain: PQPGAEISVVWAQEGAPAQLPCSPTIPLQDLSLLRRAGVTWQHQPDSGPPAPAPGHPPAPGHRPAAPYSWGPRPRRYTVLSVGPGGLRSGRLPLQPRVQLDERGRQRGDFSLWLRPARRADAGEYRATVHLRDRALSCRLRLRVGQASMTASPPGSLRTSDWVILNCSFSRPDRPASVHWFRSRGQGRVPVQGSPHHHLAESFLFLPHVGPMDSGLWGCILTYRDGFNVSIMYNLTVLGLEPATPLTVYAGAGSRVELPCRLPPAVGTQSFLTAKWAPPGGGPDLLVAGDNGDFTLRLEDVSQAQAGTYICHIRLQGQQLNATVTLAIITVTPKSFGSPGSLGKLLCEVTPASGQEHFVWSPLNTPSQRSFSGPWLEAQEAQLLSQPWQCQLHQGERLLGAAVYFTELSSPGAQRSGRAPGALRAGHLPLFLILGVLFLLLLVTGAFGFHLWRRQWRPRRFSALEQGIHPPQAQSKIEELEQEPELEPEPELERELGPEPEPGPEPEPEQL

T2: human LAG-3 protein with hFc tag (hLAG-3-hFc protein) (human, UniProt P18627 23-450)
T2 construct: also called immunogen 1; LAG-3 extracellular domain protein; not shown: human IgG Fc fragment (hFc) of the pCpC vector
T2 sequence: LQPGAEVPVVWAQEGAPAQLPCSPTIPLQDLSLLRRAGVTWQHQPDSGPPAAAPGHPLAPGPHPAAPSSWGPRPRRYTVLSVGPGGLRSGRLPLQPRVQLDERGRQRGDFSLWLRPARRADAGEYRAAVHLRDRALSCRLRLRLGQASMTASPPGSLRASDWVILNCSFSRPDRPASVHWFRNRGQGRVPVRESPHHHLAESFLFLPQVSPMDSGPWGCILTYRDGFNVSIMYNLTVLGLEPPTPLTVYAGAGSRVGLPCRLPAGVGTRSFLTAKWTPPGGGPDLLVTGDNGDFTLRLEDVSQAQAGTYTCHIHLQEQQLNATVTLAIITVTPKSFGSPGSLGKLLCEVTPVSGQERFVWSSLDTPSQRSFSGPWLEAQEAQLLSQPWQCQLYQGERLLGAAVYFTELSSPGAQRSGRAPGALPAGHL

T3: mouse LAG-3 protein with hFc tag (mLAG-3-hFc protein) (mouse; human, UniProt Q61790 24-442)
T3 construct: Made in HEK293 cells; also called mouse LAG-3 extracellular domain protein; not shown: human IgG Fc fragment (hFc) of the pCpC vector
T3 sequence: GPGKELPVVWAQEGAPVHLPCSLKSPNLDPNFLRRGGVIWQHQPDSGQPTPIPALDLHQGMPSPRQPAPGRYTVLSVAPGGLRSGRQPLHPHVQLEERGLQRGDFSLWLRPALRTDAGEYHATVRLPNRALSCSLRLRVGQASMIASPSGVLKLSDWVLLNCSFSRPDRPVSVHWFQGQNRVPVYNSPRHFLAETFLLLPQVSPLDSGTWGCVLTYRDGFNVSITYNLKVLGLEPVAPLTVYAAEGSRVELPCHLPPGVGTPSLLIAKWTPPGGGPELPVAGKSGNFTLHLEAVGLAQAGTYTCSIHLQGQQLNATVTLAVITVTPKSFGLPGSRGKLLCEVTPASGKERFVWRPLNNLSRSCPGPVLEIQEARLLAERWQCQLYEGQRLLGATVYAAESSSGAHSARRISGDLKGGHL


Tests used:
[1] = molecular target: T1, monkey LAG-3 (full length, on the cell …); experiment: FACS, HEK293-cLAG-3; 0.013 nM
Text: The pIRES plasmid with the monkey-derived full-length gene was transfected into the HEK293 cell line to construct a HEK293 stable cell line containing monkey LAG-3 (herein referred to as HEK293-cLAG-3 stable cell line). The HEK293-hLAG-3 stable cell line and HEK293-cLAG-3 stable cell line were expanded in a T-75 cell culture flask to a 90% confluence. The medium was aspirated, and the cells were washed with HBSS (Hanks' Balanced Salt Solution) 1-2 times, then treated with a enzyme-free cell dissociation fluid (Versene solution: Life technology) and the cells were collected. The cells were washed with HBSS buffer for 1-2 times. After counted, the cells were diluted with HBSS to 1-2×10⁶ cells per ml, added with 1% goat serum blocking solution, incubated on ice for 20-30 minutes, and then washed with HBSS for 2 times by centrifugation. The collected cells were suspended in the FACS buffer (HBSS+1% BSA) to 2×10⁶ cells/ml, added as 100 microliters per well to a 96-well FACS reaction plate, added with 100 microliters per well of the antibody sample to be tested, incubated on ice for 1-2 hours. The plate was washed twice with the FACS buffer by centrifugation, added with 100 microliters of fluorescent (Alexa 488)-labeled secondary antibodies per well, and incubated on ice for 0.5-1.0 hours. The plate was washed 2-3 times with FACS buffer by centrifugation, added with 100 μl fixative solution (4% Paraformaldehyde) per well to suspend the cells. 5-10 minutes later, it was washed 1-2 times with FACS buffer by centrifugation. The cells were suspended with 100 microliters of FACS buffer, FACS (FACSCalibur, BD) was used for detection and the results were analyzed.

[2] = molecular target: T2, human LAG-3 protein with hFc tag …; experiment: FACS, blocks LAG-3-hFc binding to MHC II on Raji; 2.469 nM
Protocol: The FACS reaction plate incubating the Raji cells was centrifuged to discard the supernatant. The above mixture was added as 100 μl per well to Raji cells and incubated on ice for 1-2 hours. The plate was washed twice with blocking solution (PBS, 2% fetal bovine serum) by centrifugation, added with 100 microliters of fluorescent (Alexa 488)-labeled secondary antibodies per well, and incubated on ice for 1.0 hours. The plate was washed 2-3 times by centrifugation with blocking solution (PBS, 2% fetal bovine serum), added with 100 microliters of PBS per well to suspend cells, and detected using FACS (FACS Calibur, BD) and the results were analyzed. Wherein, the IgG control was murine IgG, and the data in the table is the inhibition rate (%).

[3] = molecular target: T3, mouse LAG-3 protein with hFc tag …; experiment: ELISA, mLAG-3-hFc coated; 6.6667 nM
Protocol: The plate was sealed with plastic film and incubated overnight at 4° C. The plate was washed 2 times with the plate washing solution (PBS+0.01% Tween20) on the next day, and added with the blocking solution (PBS+0.01% Tween20+1% BSA) and blocked at room temperature for 1-2 hours. The blocking solution was poured out, and the plate was added with 50-100 μl of the antibody sample to be tested to each well, incubated at 37° C. for 1-2 hours, and washed 2-3 times with a plate washing solution (PBS+0.01% Tween20). HRP (horseradish peroxidase) labeled secondary antibody was added, and the plate was incubated at 37° C. for 1-2 hours, and washed 2-3 times with a plate washing solution (PBS+0.01% Tween20). 100 μl of TMB substrate was added to each well. After incubated at room temperature for 15-30 minutes, the plate was added with 100 μl of stop solution (1.0N HCl) to each well.

Binder | Mean fluorescence intensity [1] | Inhibition rate (%) [2] | OD450 [3]
405B8H3 (mouse antibody purified from hybridoma) (antibody, V domains shown, also called mAb103-405B8H3; 405B81-13) VH: QVQLQQSGAELVRPGASVTLSCKASGYTFTDYEMHWVKQTPVHGLEWIGATDPETGNSAYNQKFKGKAIMTADKSSSTAYMELRSLTSEDSAVYYCISTGWNDWGQGTSLTVSS VL: DIKMTQSPSSMYASLGERVTITCKASQDINSYLSWFQQKPGKSPKTLIYRADRLLDGVPSRFSGSGSGQDYSLTISSLEYGDMGIYYCLQYDEFPYTFGGGTKLEIK | 4.2 MFI | 41.9% | 
105F1E10 (LAG-3 mouse-human chimeric antibody) (antibody, V domains shown) VH: EVQLQQSGPELVKPGASVKMSCRASGYTFTDFKMHWMKQSHGKSLEWIGYIAPNNGGTAYNQKFRGKATLTVNESSNTAYMELRSLTSEDSAVYYCVDWDDVDYWGQGTTLTVSS VL: DIKMTQSPSSMYASLGERVTITCKASQDINSYLSWFQQKSGKSPKTLIYRANRLVDGVPSRFSGSGSGQDYSLTISSLEYEDMGIYYCLQYVEFPLTFGAGTKLELK |  |  | 0.14 OD450
405B8H3 (LAG-3 mouse-human chimeric antibody) (antibody, V domains shown, also called mouse-human chimeric antibody 405B8H3) VH: QVQLQQSGAELVRPGASVTLSCKASGYTFTDYEMHWVKQTPVHGLEWIGATDPETGNSAYNQKFKGKAIMTADKSSSTAYMELRSLTSEDSAVYYCISTGWNDWGQGTSLTVSS VL: DIKMTQSPSSMYASLGERVTITCKASQDINSYLSWFQQKPGKSPKTLIYRADRLLDGVPSRFSGSGSGQDYSLTISSLEYGDMGIYYCLQYDEFPYTFGGGTKLEIK |  |  | 0.34 OD450
105F1E10 (mouse antibody purified from hybridoma) (antibody, V domains shown, also called mAb009-105F1E10) VH: EVQLQQSGPELVKPGASVKMSCRASGYTFTDFKMHWMKQSHGKSLEWIGYIAPNNGGTAYNQKFRGKATLTVNESSNTAYMELRSLTSEDSAVYYCVDWDDVDYWGQGTTLTVSS VL: DIKMTQSPSSMYASLGERVTITCKASQDINSYLSWFQQKSGKSPKTLIYRANRLVDGVPSRFSGSGSGQDYSLTISSLEYEDMGIYYCLQYVEFPLTFGAGTKLELK | 4.1 MFI | 27.8% | 
409B11E12 (mouse antibody purified from hybridoma) (antibody, V domains shown, also called mAb104-409B11E12) VH: QVQLQQSGAELVRPGASVTLSCKASGYTFTDYEMHWVKQTTVHGLEWIGATDPETSYSAYNQKFKGKAILTADKSSSTAYMELRSLTSEDSAVYYCIATGWNDWGQGTSLTVSS VL: DLKMTQSPSSMYASLGERVTITCKASQDINSYLSWFQQKPGKSPKTLIYRANRLLDGVPSRFSGSGSGQDYSLTISSLEYEDMGIYYCLQYDEFPYTFGGGTKLEIK | 3.3 MFI | 39.6% | 
409D4E10 (LAG-3 mouse-human chimeric antibody) (antibody, V domains shown) VH: QVQLQQSGAELVRPGASVTLSCKASGNTFTDYEMHWVKQTPVHGLEWIGATDPETDNTAYNQKFKGKAILTTDKSSSTAYMELRSLTSEDSAVYYCITSGWNDWGQGTSLTVSS VL: DIKMTQSPSSMYASLGERVTITCKASQDINSYLSWFQQKPGKSPKTLIYRANRLLDGVPSRFSGSGSGQDYSLTISSLEYEDMGIYYCLQYNEFPYTFGGGTKLEIK |  |  | 0.23 OD450
409D4E10 (mouse antibody purified from hybridoma) (antibody, V domains shown, also called mAb112-409D4E10) VH: QVQLQQSGAELVRPGASVTLSCKASGNTFTDYEMHWVKQTPVHGLEWIGATDPETDNTAYNQKFKGKAILTTDKSSSTAYMELRSLTSEDSAVYYCITSGWNDWGQGTSLTVSS VL: DIKMTQSPSSMYASLGERVTITCKASQDINSYLSWFQQKPGKSPKTLIYRANRLLDGVPSRFSGSGSGQDYSLTISSLEYEDMGIYYCLQYNEFPYTFGGGTKLEIK | 3.5 MFI | 44.7% | 
409B11E12 (LAG-3 mouse-human chimeric antibody) (antibody, V domains shown) VH: QVQLQQSGAELVRPGASVTLSCKASGYTFTDYEMHWVKQTTVHGLEWIGATDPETSYSAYNQKFKGKAILTADKSSSTAYMELRSLTSEDSAVYYCIATGWNDWGQGTSLTVSS VL: DLKMTQSPSSMYASLGERVTITCKASQDINSYLSWFQQKPGKSPKTLIYRANRLLDGVPSRFSGSGSGQDYSLTISSLEYEDMGIYYCLQYDEFPYTFGGGTKLEIK |  |  | 0.31 OD450
556F6B8 (mouse antibody purified from hybridoma) (antibody, V domains shown, also called mAb123-556F6B8) VH: RVQLKQSGPGLVQPSQSLSITCTVSGFSLIKYGVHWVRQSPGEGLEWLGVIWRGGITDYNAAFMSRLSITKDNSKSQVFFKMNSLQADDTAIYYCAKWDGPLAMDYWGQGTSVTVSS VL: DIVMTQSHKFLSTSVGDRVSITCKASQDVGTTVAWYQQKPGQSPKLLIYWASTRHTGVPDRFTGSGSGTDFTLTISNVQSEDLADYFCQQYSSYPYTFGGGTKLEIK | 3.9 MFI | 48.1% | 
556F6B8 (LAG-3 mouse-human chimeric antibody) (antibody, V domains shown, also called 556F8B8) VH: RVQLKQSGPGLVQPSQSLSITCTVSGFSLIKYGVHWVRQSPGEGLEWLGVIWRGGITDYNAAFMSRLSITKDNSKSQVFFKMNSLQADDTAIYYCAKWDGPLAMDYWGQGTSVTVSS VL: DIVMTQSHKFLSTSVGDRVSITCKASQDVGTTVAWYQQKPGQSPKLLIYWASTRHTGVPDRFTGSGSGTDFTLTISNVQSEDLADYFCQQYSSYPYTFGGGTKLEIK |  |  | 0.36 OD450
